Common to all, as to conditions: both partners purified
The target in assay [1] is T1, DIP-β (isoformG), extracellular region (Drosophila melanogaster).
T1 construct: DIP-β, Drosophila melanogaster, isoform G as printed, extracellular region; source: HEK293F cells, transiently transfected, purified from conditioned media (Ni-IMAC, size-exclusion chromatography)
As to the kind of experiment: SPR; Biacore T100, CM4 chip; DIPs and DIP mutants immobilised by amine coupling, Dprs as analytes; 25 °C; 10 mM Tris-HCl pH 7.2, 150 mM NaCl, 1 mM EDTA, 1 mg/mL BSA, 0.01% Tween-20; duplicate responses fit globally to a 1:1 model; Rmax fixed for KDs > 100 μM, lower limit listed for KDs > 300 μM. For orientation: Surface plasmon resonance follows binding to a sensor surface in real time, without labels.

A further assay concerns the target T2, DIP-α (Drosophila melanogaster).
T2 construct: DIP-α, Drosophila melanogaster, extracellular region; The PDB entries are cited structures and may hold shorter constructs; also called blue subgroup DIP; source: HEK293F, transiently transfected, purified from conditioned media (Ni IMAC, SEC)
As to the kind of experiment: SPR; Biacore T100, CM4 chip; DIPs and DIP mutants immobilised by amine coupling (760-980 RU), Dprs and Dpr mutants as analytes (three-fold dilution series, up to 81 μM, in some cases up to 27 or 9 μM); 25 °C; 10 mM Tris-HCl pH 7.2, 150 mM NaCl, 1 mM EDTA, 1 mg/mL BSA, 0.01% Tween-20; equilibrium fit, 1:1 model; for KDs > 300 μM a lower limit is listed.

The next assay has as its target T3, DIP-α K10Q (Drosophila melanogaster).
T3 construct: DIP-α, Drosophila melanogaster, extracellular region; source: HEK293F, transiently transfected, purified from conditioned media (Ni IMAC, SEC)
Described as above.

In the next assay the target is T4, DIP-α A11T (Drosophila melanogaster).
T4 construct: DIP-α, Drosophila melanogaster, extracellular region; the results' sentence speaks of 'Dpr10 positions 10 and 11'; source: HEK293F, transiently transfected, purified from conditioned media (Ni IMAC, SEC)
Described as above.

In general, Kd refers to the equilibrium constant for the complex coming apart. High values mean lower affinity, low ones higher affinity.

B1: Dpr10 V31K Q29E L10G {V144K Q142E L93G}, extracellular region (domain or fragment)
chain: WNEPYFDLTMPRNITSLVGKSAYLGCRVKHLGNKTVAWIRHRDGHILTVGTYTYTTDQRFQTSYHRDIDEWTLQIKWAQQRDAGVYECQISTEPKRSYSVNLNIVVPTATILGGPDLYVDKGSTINLTCIIKFSPEPPTHIFWYHQDKVLSEETSGGRLKFKTIKSEETKSILLIYDADLLHSGKYSCYPSNTEIASIR
modifications: Limits not printed (ref. 11). Start follows PDB 6NRQ entity 1 (W3 = UniProt 50); end is the end of Ig2 in the entry's features.
In assay [1], B1 returned a Kd greater than 500 µM.

B2: Dpr10 V31K Q29E L10G (domain or fragment)
chain: WNEPYFDLTMPRNITSLVGKSAYLGCRVKHLGNKTVAWIRHRDGHILTVGTYTYTTDQRFQTSYHRDIDEWTLQIKWAQQRDAGVYECQISTEPKRSYSVNLNIVVPTATILGGPDLYVDKGSTINLTCIIKFSPEPPTHIFWYHQDKVLSEETSGGRLKFKTIKSEETKSILLIYDADLLHSGKYSCYPSNTEIASIR
modifications: Same molecule as Dm6. Limits not printed (ref. 11). Start follows PDB 6NRQ; end is the end of Ig2 in the entry's features.
For B2, the Kd in the assay with DIP-α was greater than 500000 nM.

B3: Dpr10 (domain or fragment)
chain: YQRQSVSNNNHNNAEAKPTHAPPSHYPHGHKWNEPYFDLTMPRNITSLVGKSAYLGCRVKHLGNKTVAWIRHRDLHILTVGTYTYTTDQRFQTSYHRDIDEWTLQIKWAQQRDAGVYECQISTQPVRSYSVNLNIVDLIDAETSDIMQQYYNDDAFYIAENRVYQSSNDEFAGMFGPIQTVAVPTATILGGPDLYVDKGSTINLTCIIKFSPEPPTHIFWYHQDKVLSEETSGGRLKFKTIKSEETKSILLIYDADLLHSGKYSCYPSNTEIASIR
Molecule B3 gave a dissociation constant Kd with DIP-α of 1500 ± 100 nM. In addition, the “fold increase of KD over wild type” value in the assay with DIP-α K10Q and with DIP-α A11T was roughly 10 fold throughout.

Values taken from article PMC7195491, “DIP/Dpr interactions and the evolutionary design of specificity in protein families” (Nature Communications, 2020).
